Source: publication PMC11784222

Assays:
[1] = molecular target: GP5 in the pVC vector (pVC-GP5) (HP-PRRSV-2 strain HuN4); assay: split reporter (BiFC, NanoBiT); BiFC in HEK293T cotransfected with pVN and pVC plasmids, 24 hpt; YFP signal by confocal microscopy and ratio of YFP-positive cells by flow cytometry
[2] = molecular target: N protein in the pVC vector (pVC-N) (HP-PRRSV-2 strain HuN4); assay: as above

N protein in the pVN vector (pVN-N) (natural protein)
percent of fluorescence-positive cells (BiFC) [1]: 3.87%

nsp2 in the pVN vector (pVN-nsp2) (natural protein)
percent of fluorescence-positive cells (BiFC) [2]: 32.1%
